Assays:
Test in all cases: IEDB peptide-MHC binding, purified MHC/competitive/radioactivity; filed as Kd, often an IC50 or EC50 that approximates it; ≥ and ≤ were set here for values at or beyond the usual limits of such assays
[1] = target: HLA-A*31:01
[2] = target: HLA-A*33:01
[3] = target: HLA-A*03:01
[4] = target: HLA-A*11:01
[5] = target: HLA-A*68:01
[6] = source organism: Vaccinia virus WR
[7] = source organism: Dengue virus 4 Philippines/H241/1956
[8] = source organism: Dengue virus 1 Brazil/97-11/1997
[9] = source organism: Dengue virus 3 Martinique/1243/1999
[10] = source organism: Mammarenavirus juninense
[11] = source organism: Lassa virus Josiah
[12] = source organism: Dengue virus 2 Jamaica/1409/1983

QILMKTANNY was tested, and the Kd [1, 6] was 2380 nM, the Kd [2, 6] was 8870 nM and the Kd [3, 6] was 106 nM. For the same sequence, the Kd [4, 6] was 879 nM and the Kd [5, 6] was 5020 nM.

For VSTPQGLVK, the Kd [4, 7] was 6890 nM.

AIDRQVSVK gave a Kd [1, 6] of 4370 nM, a Kd [2, 6] of at least 77700 nM and a Kd [3, 6] of 144 nM. For the same sequence, the Kd [4, 6] was 42.1 nM and the Kd [5, 6] was 11300 nM.

With YLALMATFK the Kd [3, 8] was 7.13 nM.

With QILDNAAKY the Kd [1, 6] was at least 77900 nM, the Kd [2, 6] was at least 77700 nM and the Kd [3, 6] was at least 78000 nM. It also gave a Kd [4, 6] of 8800 nM and a Kd [5, 6] of at least 77700 nM.

With ASILSLETVK the Kd [1, 6] was 12800 nM, the Kd [2, 6] was at least 70000 nM and the Kd [3, 6] was 4700 nM. The Kd [4, 6] was 25.4 nM and the Kd [5, 6] was 1770 nM.

Work on DTPSPPEVER yielded a Kd [5, 8] of 610 nM.

TWMSAEGAWR was tested, and the Kd [1, 9] was 248 nM and the Kd [2, 9] was 375 nM.

Work on EVMRSRWSR yielded a Kd [2, 8] of 4.12 nM and a Kd [5, 8] of 13.1 nM.

In the case of AMYYAVLSEY, the Kd [1, 6] is reported as 2850 nM, the Kd [2, 6] is reported as 5190 nM and the Kd [3, 6] is reported as at most 1 nM. For the same sequence, the Kd [4, 6] was 89.8 nM and the Kd [5, 6] was 982 nM.

EMILMKMKK gave a Kd [5, 7] of 74.2 nM.

SSAVVDNKLK gave a Kd [1, 6] of 1520 nM, a Kd [2, 6] of 17500 nM and a Kd [3, 6] of 289 nM. It also gave a Kd [4, 6] of 37.2 nM and a Kd [5, 6] of 1.19 nM.

Sequence AAIDGEYRLK has a Kd [4, 9] of 349 nM.

Work on LSTLNFNNLR yielded a Kd [1, 6] of 36.8 nM, a Kd [2, 6] of 1530 nM and a Kd [3, 6] of 3740 nM. For the same sequence, the Kd [4, 6] was 207 nM and the Kd [5, 6] was 12 nM.

Sequence AVAKCNLNH has a Kd [1, 10] of 688 nM, a Kd [3, 10] of 84.6 nM and a Kd [4, 10] of 230 nM. The Kd [5, 10] was at least 46500 nM.

Work on LSKSEFNTYK yielded a Kd [4, 8] of 557 nM.

In the case of MWQLMYFHRR, the Kd [1, 8] is reported as at least 25700 nM and the Kd [2, 8] is reported as 11.3 nM.

With SSDSENNPEY the Kd [1, 6] was at least 70000 nM, the Kd [2, 6] was at least 70000 nM and the Kd [3, 6] was at least 70100 nM. It also gave a Kd [4, 6] of 4460 nM and a Kd [5, 6] of at least 70200 nM.

With VTFRERYSY the Kd [1, 6] was 81.9 nM, the Kd [2, 6] was at least 5000 nM and the Kd [3, 6] was 56.5 nM. The Kd [4, 6] was 4.5 nM and the Kd [5, 6] was 106 nM.

KVVKKLSVIR gave a Kd [1, 6] of 56.3 nM, a Kd [2, 6] of 3620 nM and a Kd [3, 6] of 5120 nM. For the same sequence, the Kd [4, 6] was 916 nM and the Kd [5, 6] was 482 nM.

Sequence SFYLISIFLH has a Kd [1, 11] of 160 nM, a Kd [2, 11] of 281 nM and a Kd [3, 11] of 1020 nM. The Kd [4, 11] was 17100 nM and the Kd [5, 11] was 3240 nM.

With KLITEWCCR the Kd [1, 12] was 10.3 nM.

In the case of MTSRMLLNR, the Kd [1, 8] is reported as at least 23600 nM, the Kd [2, 8] is reported as 2.47 nM and the Kd [4, 8] is reported as 40.4 nM. It also gave a Kd [5, 8] of 54.6 nM.

For AIKILTGFR, the Kd [1, 7] was 54.7 nM.

In the case of TTRMENLLWK, the Kd [3, 9] is reported as 102 nM and the Kd [4, 9] is reported as 103 nM.

Sequence GTVTMECSPR has a Kd [5, 12] of 89 nM.

For GLLSGQGPMK, the Kd [3, 8] was 2.62 nM.

FIFSLKDTLK gave a Kd [5, 9] of 54.1 nM.
